Experiment: yeast display, Sf9 membrane polyspecificity reagent, FACS + sequencing; frameworks hold sequencing errors
In short: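 In a synthetic yeast display library (Saccharomyces cerevisiae BJ5465), nanobody expression was induced with galactose for 36–48 hours. FACS gates were set low and high (top ~1%) using anti-HA fluorescence for expression and streptavidin fluorescence for binding of the Sf9 membrane reagent. Each polyreactivity label is drawn from the gate of origin.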

Sequence	polyreactivity (PSR sort gate)
QVQLVESGGGLVQAGGSLRLSCAASGSIFTFYTMGWYRQAPGKERELVAAISQTGGRTYYADSVKGRFTISRDNAKNTVYLQMNSLKPEDTAVYYCAARSKRLAHDYWGQGTQVTVSS	high polyreactivity
QVQLVESGGGLVQAGGSLRLSCAASGSIFTGNAMGWYRQAPGKERELVAAITNGGITNYADSVKGRFTISRDNAKNTVYLQMNSLKPEDTAVYYCAADYVDFYSFRRFDYWGQGTQVTVSS	low polyreactivity
QVQLVESGGGLVQAGGSLRLSCAASGSIFTGYAMGWYRPAPGKERELVAANRYTTTSTYYADSVKGRFTISRDNAKNTVYLQMHSLKPEDTAVYYCKGWRGTYSGDYWGQGTQVTVSS	high polyreactivity
QVQLVESGGGLVQAGGSLRLSCAASGSIFTGYAMGWYRQAPGKDRELVAAISWRGGGTYYADSVQGRFTISRDNAKNTVYLQMNSQKPEDTAVYDCAAVTKFGQYAPGSKGYGYWGQATQVTVSS	low polyreactivity
QVQLVESGGGLVQAGGSLRLSCAASGSIFTGYAMGWYRQAPGKDRELVAGISWGGTSTYYADSVKGRFTISRDTAKNTVYLQMNSLKPEDTAVYYCSAVRGKYGYLTTPYWFDYWGQGTQVTVSS	high polyreactivity
QVQLVESGGGLVQAGGSLRLSCAASGSIFTGYTMGWYRPAPGKEREFVAAIRATGGSTYYADSVKGRFTISRDNAKNTVYLQMNSLKPEDTAVYYCAVRSGVGSVRKRYGYWGQGTQVTVSS	high polyreactivity
QVQLVESGGGLVQAGGSLRLSCAASGSIFTHNAMGWYRQAPGKERELVAAISSGGSTNYADSVKGPFTISRDNAKNTVYLQMNSLKPEDTAVYYCAKSIDGWYWRRRRYDYWGQGTQVTVSS	low polyreactivity
QVQLVESGGGLVQAGGSLRLSCAASGSIFTHYPMGWYRQAPGKERELVAAISRRGGSTYYADSVKGRFTISRDNAKNTVYLQMNSLKPEDTAVYYCAKSPDTAKEYDYWGQGTQVTVSS	high polyreactivity
QVQLVESGGGLVQAGGSLRLSCAASGSIFTKYAMGWYRQAPGKEREFVAAITLSGGSTYYADSVKGRFTISRDNAKNTVYLQMNSLKPEDTAVYYCNAAYTYVTAWYYYWGQGTQVTVSS	high polyreactivity
QVQLVESGGGLVQAGGSLRLSCAASGSIFTLYAMGWYRQAPGKEREFVAGISFSTGRTYYADSVKGRFSISRDNAKNTVYLQMNSLKPEDTAVYYCAAYVSHYWYGVYRDGYWGQGTQVTVSS	low polyreactivity
QVQLVESGGGLVQAGGSLRLSCAASGSIFTNAMGWYRQAPGKERELVAAISSSGGSTYYADSVKGRFTISRDNAKNTVYLQMNSLKPDDTAVYYCAADHYGCRDFWGQGSQVTVSS	low polyreactivity
QVQLVESGGGLVQAGGSLRLSCAASGSIFTNAMGWYRQAPGKETELVAAISYSGGSTYYADSVKGRFTISRDNAKNTVYLQMNSLKREDTAVYYCAAEAWFDGIWGDYWGQGTQVTVSS	high polyreactivity
QVQLVESGGGLVQAGGSLRLSCAASGSIFTPYAMGRYRQAPGKERELVAAISRSGGRTYYADSVKGRFTISRDNAKNTVYLQMNSLKPEDTAVYYCNAGAGQRVSGHSFEYWGQGTQVTVSS	high polyreactivity
QVQLVESGGGLVQAGGSLRLSCAASGSIFTPYAMGWYRQAPGKESELVAAIRSGTSTNYADSVKGRFTISRDNAKNTVYLQMNSLKPEDTAVYYCAAVYWSRFYVRYDYWGQGTQVTVSS	high polyreactivity
QVQLVESGGGLVQAGGSLRLSCAASGSIFTPYTMGWYRQAPGKERELVAAITGSAGSTYYADSVKGRFTISRDNAKNTVYLQMNSLKPEDTAVYYCAAAVWGVYQWYYYWGQGTQVTVSS	high polyreactivity
QVQLVESGGGLVQAGGSLRLSCAASGSIFTPYVMGWYRQAPGKEREFVAAITQRGGRTYYADSVKGRFTISRDNAKNTVYLQMNSLKPEDTAVYYCAKTSVSRTYHRSAYDYWGQGTQVTVSS	high polyreactivity
QVQLVESGGGLVQAGGSLRLSCAASGSIFTRNAMGWYRPAPGKERELVAAIRWNGGRTYYADSVKGRFTISRDNAKNTVYLQMNSLKPEDTAVYYCAADYYQRRYVPEYDYWGQGTQVTVSS	low polyreactivity
QVQLVESGGGLVQAGGSLRLSCAASGSIFTRYAMGWYRQAPGKERELVAAIRTSGGSTYYADSVKGRFTISRDNAKNTVYLQMNSLKPEDTAVYYCARRYYKSNFYYWGQGTQVTVSS	high polyreactivity
QVQLVESGGGLVQAGGSLRLSCAASGSIFTRYAMGWYRQAPGKERELVAAITASGGRTYYADSVKGRFTISRDNAKNTVYLQMNSLKPEDTAVYYCNTYWRFTSQLPYDYWGQGTQVTVSS	high polyreactivity
QVQLVESGGGLVQAGGSLRLSCAASGSIFTRYTMGWDRQAPRKERELVATNSSRGDGTYYADSVKGRFTISRDNAKNTVYLQMNSLKPEDTAVYYCSARYRRVLSGYGYWGHGTQVTVSS	high polyreactivity
QVQLVESGGGLVQAGGSLRLSCAASGSIFTRYVMGWYRQAPGKERELVAAISGRGSSTYYADSVKGRFTISRDNAKNTVYLQMNSLKPEDTAVYYCAAEIVVFYSEGQRNTFYYWGQGTQVTVSS	high polyreactivity
QVQLVESGGGLVQAGGSLRLSCAASGSIFTSNVMAWYRQAPGKERELVAAITITGTTTYADSVKGRFTISRDNAKNTVYLQMNSLIPEDTAVYYCAKDPVELSPADWRADYDYWGQGTQVTVSS	low polyreactivity

Sequence	polyreactivity (PSR sort gate)
QVQLVESGGGLVQAGGSLRLSCAASGSIFTTYAMGWYIQAPGKERELVAVISRRGGSTYYADSVKGRFTISRDNAKNTDYLQMNSLKPEDTAVYFCNAAYVWYRIFVRRDYWGQGTQVTVSS	high polyreactivity
QVQLVESGGGLVQAGGSLRLSCAASGSIFTTYAMGWYREAPGKERELVAAITDTSSTNYADSVKGRFTISRDNAKKTVFLQMNSLKPEDTAVYYCAVDLGYEYDWGQGTQVTVSS	low polyreactivity
QVQLVESGGGLVQAGGSLRLSCAASGSIFTTYAMGWYRQAPGKERELVAAISSGGGTNYADSVKGRFTISRDNAKNTVYLQMNSLKPEDTAVYYCNKRYYRLQLHNAYGATPRRNYWGQGTQVTVSS	low polyreactivity
QVQLVESGGGLVQAGGSLRLSCAASGSIFTVNAMGWYRQAPGKERELVAAISSGGSTHYADSVKGRFTISRDNAKNTVYLQMNSLKPEDTAVYYCAAEVSYYLNEFDYWGQGTQVTVSS	low polyreactivity
QVQLVESGGGLVQAGGSLRLSCAASGSIFTVYAMGWYRQAPGKERELVASISKSGGSTYYADSVKGRFTISRDNAKNTVYLQMNSLKPEDTAVYYCAAESGRTYSHRHYDSWGQGTQVTVSS	low polyreactivity
QVQLVESGGGLVQAGGSLRLSCAASGSIFTVYGMGWYRQAPGKERELVAAISRSGGSTYYADSVKGRFTISRDNAKNTVYLLMNSLKPEDTAVYYCAADVYRTWFWWFDYWGQGTQVTVSS	high polyreactivity
QVQLVESGGGLVQAGGSLRLSCAASGSIFTWNAMGWYSQAPGKERELVAAISWIGDSTYYADSVKGRFTISRDNAKNTVYLQMNSLKPEDTAVYYCAAEYAQGSRELESWGQGTQVTVSS	low polyreactivity
QVQLVESGGGLVQAGGSLRLSCAASGSIFTWYAMGWYRQAPGKERELVAAITTSGGSTYYADSVKGRFTISRDNAKNTVYLQMNSLKPEDTAVYYCAKDGDYLFYYYGYDYWGQGTQVTVSS	low polyreactivity
QVQLVESGGGLVQAGGSLRLSCAASGSIFTYAMGWYRQAPGKERELVAAITYSGGRTDYADSVKGRFTISRDNAKNTVYLQMNSLKPEDTAVYYCAVRARPYPYYGALMYYWGQGTQVTVSS	low polyreactivity
QVQLVESGGGLVQAGGSLRLSCAASGSIFTYNAMGWYRQAPGKERELVATISYSGGSTDYADSVKGRFTISRDNAKNTVYLQMNSLKPEDTAVYYCNKEYGYPPIWQDYGYDSWGQGTQVTVSS	high polyreactivity
QVQLVESGGGLVQAGGSLRLSCAASGSIFTYNVMGWYRQAPGKERELVASISWSGGRTYYADSVKGRFTISRDYAKNTVYLQMNSLKPEDTAVYYCNNVRPPVYFPNRDYWGQGTQVNVSS	low polyreactivity
QVQLVESGGGLVQAGGSLRLSCAASGSIFTYYAMGWYRQAPGKERELVAAISGSGGRTYYADSVKGRFTISRDNAKNPVYLQMNSLKPEDTAVYYCAVRSYRRFTHLYYRYDYWGQGTQVTVSS	high polyreactivity
QVQLVESGGGLVQAGGSLRLSCAASGSIFTYYAMGWYRQAPGKERELVAAISSDGSTTYADSVKGRFTISRDNAKNTVYLQMNSLKPEDTAVLLLQRSGLRRSGVWFDYWGQGTQVTVSS	low polyreactivity
QVQLVESGGGLVQAGGSLRLSCAASGSIFTYYVRGWYRQAPVKERELVAGISRRGSTYYADSVKGRFTISRDNAKNTVYLQMNSLKQEDTAVYYCAAEPWVGTLYPRVGYWGQGTQVTVSS	low polyreactivity
QVQLVESGGGLVQAGGSLRLSCAASGSIFVANAMGWYRPAPGKERELVAAISSGGSTYYADSVKGRFTISRDNAKNTVYLQMNSLKPEDTAVYDCAAGQPNLVVGHYYWGQGTQVTVSS	low polyreactivity
QVQLVESGGGLVQAGGSLRLSCAASGSIFVDNAMGWYRQATGKERELVAAISASGVTTYYADSVKGRFTISRDNAKNTVYLQMNSLKPEDTAVYYCNADYGSDDDVVRYDYWGQGTQVTVSS	low polyreactivity
QVQLVESGGGLVQAGGSLRLSCAASGSIFVEYAMGWYRQAPGKERELVAGISSGGITSYADSVKGRFTISRDNAKNTVYLQMNSLKPEDTAGYYCATDPYKWFYSSYYLLQEVEYWGQGTQVTVSS	low polyreactivity
QVQLVESGGGLVQAGGSLRLSCAASGSIFVFNTMGWYRQAPGKERELVAAISDRGTRTYYADSVKGRFTISRDNAKNTVYLQMNSLKPEDTAVYYCATRVYFSPYRYDYWGQGTQVTVSS	high polyreactivity
QVQLVESGGGLVQAGGSLRLSCAASGSIFVFYAMGWYRQAPGKERELVAAINDGGSTHYADSVKGRFTISRDNAKNTVYLQMNSLKPEDTAVYYCAAEYVWYRYPDYWGAYDYWGQGTQVTVSS	low polyreactivity
QVQLVESGGGLVQAGGSLRLSCAASGSIFVGNAMGGYRQAPGKERELVAAITSSGGRTYYADSVKGRFTISRDNAKNTVYLQMNSLKPEDTAVYYCNTSRTRRFSLWAYDYWGQGTQVTVSS	high polyreactivity
QVQLVESGGGLVQAGGSLRLSCAASGSIFVGNAMGWYRPAPGKERELVAAITGRGSRTYYADSVKGRFTLSRDNAKNTVYLQMNSLKPEDTAVYYCAARYTNYGGFYWGQGTQVTVSS	high polyreactivity

— the nanobody polyreactivity screen of Harvey et al. (2022)
